Measured values published in article PMC10123100, “Single-molecule visualization of stalled replication-fork rescue by the Escherichia coli Rep helicase”.

B1: 3'-bio-dT35 (ssDNA)
DNA: TTTTTTTTTTTTTTTTTTTTTTTTTTTTTTTTTTT
modifications: 3'-biotin
B2: 3'-bio-dT15 (ssDNA)
DNA: TTTTTTTTTTTTTTT
modifications: 3'-biotin

Assays:
[1] = target: Rep K28A (Escherichia coli, UniProt P09980 1-673, K28A); experiment: SPR; 200 uM ATP, dissociation not stimulated; SPR: 25 mM Tris-HCl pH 7.6, 50 mM NaCl, 5 mM MgCl2, 0.25 mM DTT, 0.2 mM EDTA, 0.005% P20, 20 C; single-molecule: 25 mM Tris-HCl pH 7.9, 10 mM Mg acetate, 50 mM; conditions: protein: recombinant; tags: His6; chain copies: 2; single strand
[2] = target: T1, Rep WT (Escherichia coli, UniProt P09980 1-673); experiment: SPR; no nucleotide, 5 mM Mg2+; 20 nM Rep; kon 1.03e6 M-1 s-1, koff 2.15e-4 s-1; SPR: 25 mM Tris-HCl pH 7.6, 50 mM NaCl, 5 mM MgCl2, 0.25 mM DTT, 0.2 mM EDTA, 0.005% P20, 20 C; single-molecule: 25 mM Tris-HCl pH 7.9, 10 mM Mg acetate, 50 mM; conditions: protein: recombinant; chain copies: 2; single strand
[3] = target: T1, Rep WT; experiment: SPR; no nucleotide, 5 mM Mg2+; kon 1.22e7 M-1 s-1, koff 5.91e-3 s-1; SPR: 25 mM Tris-HCl pH 7.6, 50 mM NaCl, 5 mM MgCl2, 0.25 mM DTT, 0.2 mM EDTA, 0.005% P20, 20 C; single-molecule: 25 mM Tris-HCl pH 7.9, 10 mM Mg acetate, 50 mM; conditions: protein: recombinant; chain copies: 2; single strand

Binder	binding result [1]	Kd [2]	Kd [3]
B1	binds	0.2 nM	
B2			0.5 nM
